# Source: the supplement of paper PMC9170038
# Test system: K4 kissing-loop RNA reporter
# Assay: apparent KD of K4 kissing-loop reporter; higher = weaker reporter binding
# Conditions: Eterna round: R107
# Protocol: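 RNA-MaP round R107: designed RNA switches with theophylline, tryptophan, arginine or FMN aptamers are transcribed on-chip within common flanks. They are titrated with a labelled K4 kissing-loop RNA reporter in RNA-MaP buffer (100 mM Tris pH 7.5, 80 mM KCl, 4 mM MgCl2), without ligand or with the indicated ligand. Median apparent KD per design.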
# [1] = input ligand: theophylline 20 uM
# [2] = input ligand: tryptophan 2.4 mM
# 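Also: bound reporter read as fluorescence of individual clusters on recovered sequencing chips by microscopy, with normalized cluster intensities fitted with a binding model.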
Sequence,apparent KD of K4 kissing-loop reporter (input ligand: FMN 200 uM),apparent KD of K4 kissing-loop reporter (input ligand: arginine 13.2 mM),apparent KD of K4 kissing-loop reporter (input ligand: none),apparent KD of K4 kissing-loop reporter [1],apparent KD of K4 kissing-loop reporter [2]
AAGUGAUGUUGUAGUGAUGUUGUGAUGUUGCAGGAUAUAUAGUGAUGUAGAAGGGUAAGUACUGAUGUUGUUAGUAAGUGAUGUU [tvvbmullin],106 nM,50.1 nM,89.9 nM,76.6 nM,77.8 nM
AUCGUUGUCUGAGGAUAUCGAUUAACUGUAGUGAUGUUACAGAAAAUUCAUAUAAUAUUUUCUAUUCGAGAAGGCAGACUACGUA [JR_ExcFMNB_Sub017],167 nM,135 nM,144 nM,139 nM,144 nM
UAAUGCAUGACGGCCGCCACUAGUACUGGAGUGAUGUUGUGGUACGGCGGCAAUAUAGGGUGGACUAGGACCGGGUCAUGCAUAU [KL-XTryp-B12 #analogue],403 nM,336 nM,346 nM,380 nM,432 nM
GUUAUGGACCUGGAUACCAGCUGGUACUAAGUGGGAAAAUGAAAGUGAUGUUUUCGUGCUAGCCCUUGGCAGCCAGCAACCCGCA [XTheo-B6],120 nM,124 nM,121 nM,133 nM,110 nM
UUUUGGCCAACGGCCGCCACUCACUAGUGAUGUUAGUUUGUGUUAUUCAUGAACCCGAUGUCGUCGAGGACCGGGUUGGGUUAUA [theeternabot_exclusion_KL_Trp_B_41],242 nM,197 nM,237 nM,201 nM,244 nM
GUCCCAGUGAUGUUGGUAGGCGAGCGGGAUACCAGCCAAGACUCAGGCCCUUGGCAGCCCACAUAUCCCACGUAGGGAGUAGCUC [Same State - Theophylline A (Freestyle 18)],269 nM,172 nM,210 nM,274 nM,209 nM
AAUGCAUAGUGAAGGAGCGCGAUAAGCAGUGAUGUUGCUUAGUUAUAAGUGUUUAUUUAUUCGCAGGUAGGUCGCACUUUGCAUA [JR_ExcArginiB_Sub019],147 nM,111 nM,124 nM,117 nM,132 nM
GUGUGUGUCGGAGGAUAUGCGAUAGAUGUAGGAGAAUUAGUGAUGUUAGUUAUGGUAGAGAUAGGAGUAGAAGGUUGGUGUGUGU [RHig 3/7 B],440 nM,413 nM,484 nM,572 nM,428 nM
AUUUAAUGUAUAGAUUAUAUACAUUAUUCAGAGGAUAUGCAUUGAAGCAGAAGGCUGGAUGUAGUGAUGUUGCAAUUUUAAUUUA [JR_SSFMNA_Sub007],205 nM,247 nM,218 nM,299 nM,143 nM
AGAACUGUCUGAGAUACCAGCCGAGGAGUGAUGUUCCGGCUCGACGAAACGUCGAGCCACGGCCCUUGGCAGCUCAGACAGUUCA [Omei KL Theo B SS A v1],1360 nM,287 nM,647 nM,1060 nM,455 nM
UGCAGUGAUGUUGCUAUUUGUCUUGAUUAACGAGGACCGGUACGGCCGCCACUCGAUUUCUCUCUAAUCGGGUAUGUUGUUUAGU [#20 K4 Tryptophan A Exclusion],154 nM,200 nM,170 nM,187 nM,119 nM
UUUGGCCACAGAGAUACCAGUCAUAUCGCUCUGGAGUGAUGUUCCGGAACAUGCGGAGAAGACCCUUGGCAGCUCAUGACGGUAA [Exclusion Theophylline B GF 2],232 nM,194 nM,196 nM,201 nM,254 nM
UCGAAGGAUGGAAGGAGCGCUCGUCAGUCCUGCGAGUGAUGUUCGUGGGUAAAUAGUCGCGAGCAGGUAGGUCGCCAUCUUGAGA [Lageso],110 nM,96.9 nM,101 nM,152 nM,118 nM
GGAUAGGACAGAGGAUAUGGUGCUAGGCAAGAAUAACUUGUCUAGCAAUCCAUGAGGAGUGAUGUUCCAGAAGGCUGUCCUAUCG [FmnBX 3 - #SwitchBubble #StraticStem #DoubleMagnetSystem],440 nM,132 nM,137 nM,136 nM,118 nM
AUGCGUUGCACGGCCGCCACUGAUAUUAUGCUUCAGGAUGCUUCUGAAAGUGAUGUUUUCAGAUCCAGGACCGGGUGCCAAGAUU [theeternabot_sameState_KL_Trp_B_17],104 nM,88.2 nM,98.3 nM,92.3 nM,98.8 nM
AAUGUGCAGGGAAGGAGCGUAGUCCAGUGCUGUUGGAGUUAGAUACCAGUGAUGUUGGUUAUACAGGUAGGUCGCCCUAGAGCGC [whbob_Ex_Arginine_B_2th162],114 nM,119 nM,124 nM,141 nM,96.3 nM
AAUAUACAUUAAUUAAUUAAAGGUUCAGAAGGAGCGUGAAUUAACACAGGUAGGUCGCUGAGCGAGUGAUGUUCGCUAUAUACUA [JR_ExcArginiA_Sub004],61.4 nM,73.1 nM,69.5 nM,79.9 nM,58.1 nM
UGGAGUUGACGAAAAGUCAACUCCCGAGAAGGAGCGGACGAAAGUCCAGGUAGGUCGCUCGCUACCAGUGAUGUUGGUACUUUAA,147 nM,189 nM,174 nM,219 nM,147 nM
AGAUGUUCCUGGGAUACCAGUCGGAGUCUCAGAGCUCGGAGUGAUGUUCUGGGAUGUUUCGGCCCUUGGCAGCUCUGGGACUCCC [#2 Exclusion - Theophylline B Attempt #24 (HarryS)],1120 nM,624 nM,642 nM,735 nM,726 nM
AGAGUUAUAUGAGGAUAUGAGAUAGUUAAUGAGUGAGUUAUAGUGUAGUUUGUUUAGUGAUGUUAUUUAGAAGGCGUGAGUGAUG [ljjlumullin],140 nM,89.4 nM,122 nM,133 nM,88.8 nM
CCAUCGCUAUUCGAUACCAGCUCCUUAGUGAUGUUGAGGUUUUACCCACUGUAGGUGGGAAGCCCUUGGCAGCGAAUAGUGAUGG [Theophylline B K4 29],523 nM,217 nM,430 nM,480 nM,816 nM
GUGAAGGAGCUGCAGUGAUGUUGCAGAGACUAGGAUAUCAGGAAACUGAGAAGGAGUCAACUCCUUCACCUAGACUGCAACAUAA [[F]''-[K1]-[K2]-[F1]-[F2]-[F2]'-[F1]'-[K]'_Design3],99.6 nM,69.7 nM,67.7 nM,75.7 nM,134 nM

Sequence,apparent KD of K4 kissing-loop reporter (input ligand: FMN 200 uM),apparent KD of K4 kissing-loop reporter (input ligand: arginine 13.2 mM),apparent KD of K4 kissing-loop reporter (input ligand: none),apparent KD of K4 kissing-loop reporter [1],apparent KD of K4 kissing-loop reporter [2]
AAGAGCUAGGCGGCCGCCACUAGAUGUGAACACAUACAAGCCAGUGAUGUUGGUAUGAUGGACAGUAGGACCGGGCCUAGCUGAA [Exclusion - Tryptophan B (Freestyle 9)],353 nM,377 nM,407 nM,368 nM,421 nM
GUAGUCGUACCUUCAGUGAUGUUGAAGGAUACCAGAUGUUACCACAUCCCUUGGCAGCCUUGGGAUAACAGUGAGUUGGAAUAUG [Soonusa],161 nM,127 nM,159 nM,138 nM,160 nM
CGGAGUGAUGUUCCGUUAAUUCCUUAUUUACGAGGACCGGUACGGCCGCCACUCGAUUUUGCUUUUAUUUAAUGUUUGGAAAUUU [JR_SSTryptoA_Sub007],256 nM,274 nM,269 nM,317 nM,122 nM
GGUAGCAUGGCGGCCGCCACUUAGACCCUCCAGGAUGAGGGAAAAUAGCAGUGAUGUUGCUAGGUAAGGACCGGGCCAUGCUACC,230 nM,120 nM,162 nM,156 nM,119 nM
ACCAUCAAAGAUGGCCAGGACUCCGCUGAUACCAGAGUGAAAACACUCCCUUGGCAGCAGGUGAGUGAUGUUCACAAGUCCUGGA [Omel KL Theo A SS B v5],1160 nM,693 nM,1860 nM,981 nM,857 nM
AGAACUGUCUGAGAUACCAGCCAGGAAGUGAUGUUUCCAGCUCGACGAAAGUCGAGCCAUGGCCCUUGGCAGCUCAGACAGUUCA [Omei KL Theo B SS A v4],178 nM,147 nM,149 nM,118 nM,166 nM
UGUACCGAGGCAGGAUAUGUCGUCGAAAGACGAAAUGGAGUGAUGUUCCUUAAACUGCGAAAGCAGACAGAAGGGCCUUGGUACU [FmnBS 29 G10+C76],132 nM,179 nM,175 nM,202 nM,160 nM
AGACUACCACACUGUCAAUAGACAGUGGACUAGGAUAUGCUGAUAAGCAGAAGGAGUGAUGUUCCUGGGUAGUCAAUAAAAUAAU [FmnAX 13 G28+G67],484 nM,366 nM,526 nM,696 nM,425 nM
CGAGUGAUGUUCGUUCGUUUAUUUUUUUGACAGGAUAUGCGGAAACGCAGAAGGGUCACCUUUGAGUUAAAAGAAUUUACGUUAU [Ex FMN A 25],460 nM,475 nM,576 nM,465 nM,414 nM
GGGAGUAGUGCGGCCGCCACUGAGAAAGUAGAAGAAUAUAGUGAUGUUAUAUAGGAAUAAAAGAACAGGACCGGGCAUUAGAUUU [SSTRyptB.U],230 nM,214 nM,230 nM,203 nM,174 nM
CCAUCGCUAUUCGAUACCAGUCAAUAGGUCUUUGGCCUAUUAAUGGAGUGAUGUUCCUUAGACCCUUGGCAGCGAAUAGUGAUGG [Theophylline B K4 12],258 nM,215 nM,260 nM,166 nM,241 nM
CCCAAGGGCGAACCGGUAUGAUCACCGGAUACCAGAGGCGAAAGCCUCCCUUGGCAGCCGGUUGUAGUGAUGUUACACUGGUUCU,91.4 nM,74.6 nM,88.7 nM,118 nM,87.7 nM
GGAUAGGACAUAGGAUAUGGUAGUGAUGUUACCAAACUGGUUAAACAUGUCAGAAAACUGGCAUGACCAGAAGGGUGUCCUAUCG [FmnBX 27 U11+G75],73 nM,54.2 nM,61.8 nM,45.9 nM,64.3 nM
UGAUAGGACAGAAGGAGCGGUAGUGAUGUUGCCAAAAGGAUAAGGUGUCAAAAGACACCCUACCAGGUAGGUCGCUGUCCUAUCU,175 nM,216 nM,154 nM,179 nM,152 nM
AGACUACCACACUGUCAAUAGACAGUGAACUAGGAUAUGCUGAUAAGCAGAAGGAGUGAUGUUCCUAAUAAAAGGUAGUCAUAAU [FmnAX 16 #SwitchBubble #StaticStem #K4Early],426 nM,431 nM,415 nM,587 nM,360 nM
AGGGUAAGGCGUUAACAUGACACCUGGGAAGGAGCGCGGUACACCGCAGGUAGGUCGCCCAGUGAUGUUGGGUGAUUGUAUGAGU [KL-XArg-A24],149 nM,123 nM,136 nM,150 nM,131 nM
GUACGCUUCCGAGUGAUGUUCGGUAAUAGUUAGGAUAUCGCUUUUGCGAGAAGGAACUGAAUGAGGAAACUCGUUCGAAGUGUAC [FMN A 17],406 nM,336 nM,540 nM,396 nM,459 nM
AGCCAGGAACUUGCAACCUGGCUGCUGGAUACCAGCUCGGAAACGAGCCCUUGGCAGCCAGUACUUGCAGUGAUGUUGCAAGUUC [Design13],72.2 nM,37.3 nM,153 nM,25.9 nM,290 nM
UGUACCGAGUCAGGAUAUCAUAAUAAUCCAGUGAUGUUGGAAUAACCAGUACAAAAGUGCUGGCCUUGAGAAGGGACUUGGUACU [FmnBS 4 #SwitchBubble #StaticStem],179 nM,140 nM,177 nM,157 nM,147 nM
AUCUCGGUAUCAGAUACCAGACUAUCGAUACCGAGUGUAUCGGGUAGUGAUGUUACCAUAGUCCCUUGGCAGCUGGUAGUUCAUA [Theo B SS t9c],256 nM,249 nM,261 nM,280 nM,213 nM
AGUGAUGUAUGGCGGUUGGUCACUUAGGAUCAGGAUAUAUAAACAAAUAGAAGGGAUGGCGGAGUGAUGUUCCGCCGGCCGCCAU [FMN A Exl V2],173 nM,130 nM,177 nM,191 nM,170 nM
